The values below come from patent US20260028403A1 (Zymeworks, published 2026).

For one experiment, the target named is T1, Cynomolgus monkey CLDN18 (cynomolgus monkey).
T1 construct: on transfected HEK293-6E cells; also called Cyno CLDN18; cyno CLDN18.2 ortholog
T1 chain: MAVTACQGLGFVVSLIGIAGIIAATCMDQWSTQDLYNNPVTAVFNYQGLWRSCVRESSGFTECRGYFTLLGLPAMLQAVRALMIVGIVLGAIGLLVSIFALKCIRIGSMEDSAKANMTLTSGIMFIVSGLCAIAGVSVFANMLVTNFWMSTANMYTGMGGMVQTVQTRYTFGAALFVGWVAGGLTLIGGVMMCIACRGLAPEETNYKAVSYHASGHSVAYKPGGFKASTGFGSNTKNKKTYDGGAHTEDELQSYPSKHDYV
Nature of the experiment: flow cytometry, HEK293-6E + cyno CLDN18, 4PL fit. Background: Flow cytometry measures light scatter and fluorescence of single cells or particles in a stream.

For a further experiment, the target named is T2, Mouse CLDN18 A2.1 (mouse, UniProt P56857 10-264).
T2 construct: on transfected HEK293-6E cells; also called Mouse CLDN18 2.1; mouse CLDN18.2 ortholog
T2 chain: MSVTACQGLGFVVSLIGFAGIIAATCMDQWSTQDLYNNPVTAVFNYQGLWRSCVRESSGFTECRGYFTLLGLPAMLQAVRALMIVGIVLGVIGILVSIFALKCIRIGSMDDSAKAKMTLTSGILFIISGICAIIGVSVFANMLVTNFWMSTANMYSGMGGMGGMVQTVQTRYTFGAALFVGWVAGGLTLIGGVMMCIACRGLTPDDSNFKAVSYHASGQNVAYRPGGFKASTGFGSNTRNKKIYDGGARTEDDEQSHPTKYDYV
The experiment in a line: flow cytometry, HEK293-6E + mouse CLDN18, 4PL fit.

The target in experiment [1] is T3, Human CLDN18.2 (human).
T3 construct: on transfected HEK293-6E cells or native on SNU 601 cells
The experiment in a line: flow cytometry, HEK293-6E + human CLDN18.2, 4PL fit.
Experimental: (§1) The purified rabbit chimeric and humanized constructs were assessed for binding to HEK293-6E cells transfected with human, cynomolgus monkey, or mouse CLDN18.2 orthologs (TABLE 12) by flow cytometry. […] Constructs were also assessed for binding to HEK293-6E cells transfected with human CLDN18.1.

Experiment [2] has as its target T4, CD28 on primary human T cells (human, UniProt P10747 19-220). Nature of the experiment: cell-based or functional assay.
The target of experiment [3] is T5, Recombinant human/cynomolgus/rhesus macaque CD28 mouse IgG2a Fc fusion protein (Acro Biosystems) (human/cynomolgus/rhesus macaque, UniProt P10747 19-152).
T5 construct: bought; also called huCD28
The experiment in a line: SPR Biacore T200, CD28-mIgG2a Fc on CM5, construct injected, 1:1 model.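 Also: fc fusion captured by amine coupling, run at 25 °C in HEPES buffer pH 7.4, association 140-500 s then dissociation 600-1200 s, values averaged over three independent runs.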
Experimental: All SPR binding experiments were carried out using a BiacoreT200 instrument at 25° C. with 10 mM HEPES, 150 mM NaCl, 3 mM EDTA, and 0.05% Tween 20 at pH 7.4. Recombinant human/cynomolgus/rhesus macaque CD28 mouse IgG2a Fc fusion protein (Acro Biosystems) was covalently immobilized on CM5 sensor chips by amine coupling. Purified antibody constructs to be tested were injected on the sensor chip at 30 μL/min for 140-500 s following a dissociation for 600-1200 s. Resultant kₒₙ, koff and KD values were determined from fitting the sensorgrams using the 1:1 binding model with reported values as the mean of three independent runs.

For experiment [4], the target named is T3, Human CLDN18.2. Nature of the experiment: flow cytometry, SNU 601 cells.
Experimental: To determine the impact of the trispecific construct format on the construct's ability to binding CLDN18.2, the binding affinity to CLDN18.2 was measured for certain constructs using flow cytometry as described below.
To that end, cells (>80% viability) were resuspended to 1×10⁶ cells/mL in FACS buffer (PBS+2% FBS; Gibco) and seeded in a 96 well v-bottom plate (Sarstedt). Cells were mixed with antibody dilutions and incubated at 4° C. for one hour. Following incubation, cells were washed twice by adding 150 mL FACS buffer and centrifuging for 400×g for 3 minutes. […] Cells were washed twice by adding 150 mL FACS buffer and centrifuging for 400×g for 3 minutes. Cells were resuspended in FACS buffer and acquired on the BD LSRFortessa Cell Analyzer.
In experiment [5] the target is T4, CD28 on primary human T cells. The experiment in a line: cell-based or functional assay. This is another data set of the same source.
In experiment [6] the target is T5, Recombinant human/cynomolgus/rhesus …. The experiment in a line: SPR, in-format anti-CD28 variants, huCD28.
For experiment [7], the target named is T6, Recombinant human CD3 epsilon/delta heterodimer, his tag protein (Acro Biosystems) (human, UniProt P07766 23-126; P04234 22-105).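 Also: measured at 25 °C in HEPES-buffered saline with EDTA and Tween 20 at pH 7.4, values are means of three independent runs.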
T6 construct: bought
Nature of the experiment: SPR Biacore T200, CD3 e/d-his on CM5, construct injected, 1:1 model. (In general: SPR reads the build-up and loss of mass on a sensor chip optically.)

Changes are numbered by the printed parent chain.

Experimental for Cynomolgus monkey CLDN18: as §1
Experimental for Mouse CLDN18 A2.1: as §1

B1: v37407 (antibody, human IgG1, V domains shown)
VH: QVQLVESGGGLVQPGGSLRLSCSVSGIDLSSNPMIWVRQAPGKGLEYIGIIDTDGSTYYADWAKGRFTISKDSTTVYLQMNSLRAEDTAVYYCARRLHGSSNGYYDDLWGQGTLVTVSS
VL: DGQMTQSPSSVSASVGDRVTITCQASQSIYSYLSWYQQKPGQRPKLLIYKASTLASGVPSRFSGSGSGTDFTLTISSVQPEDFATYYCQQGYTVTNVDKNTFGGGTKVEIK
notes: human IgG1-based monoclonal antibody; also called H4-L4
On to B1, for which the Bmax came to 1410 with Cynomolgus monkey CLDN18, 1540 in the experiment with Mouse CLDN18 A2.1 and 2040 in the experiment with Human CLDN18.2 [1]. Moreover, the 50% effective concentration (EC50) with Cynomolgus monkey CLDN18 was 0.24 nM; with Mouse CLDN18 A2.1 it was 0.8 nM; with Human CLDN18.2 [1] it was 1.54 nM.

B2: v37409 (antibody, human IgG1, V domains shown)
VH: QVQLVESGGGLVQPGGSLRLSCSVSGIDLSSNPMIWVRQAPGKGLEYIGIIDTDGSTYYADWAKGRFTISKDSSKNTVYLQMNSLRAEDTAVYYCARRLHGSSNGYYDDLWGQGTLVTVSS
VL: B1 VL
notes: human IgG1-based monoclonal antibody; also called H2-L4
On to B2, for which the Bmax with Cynomolgus monkey CLDN18 was 1500; in the experiment with Mouse CLDN18 A2.1, 1530; in the experiment with Human CLDN18.2 [1] it was 1960. The values for the EC50 with Cynomolgus monkey CLDN18, with Mouse CLDN18 A2.1 and with Human CLDN18.2 [1] were 0.35 nM, 0.89 nM and 1.22 nM, respectively.

B3: v37408 (antibody, human IgG1, V domains shown)
VH: B1 VH
VL: B1 VL with F83A, I110V
notes: human IgG1-based monoclonal antibody; also called H4-L2
As for B3, the Bmax in the experiment with Cynomolgus monkey CLDN18 was 1520; with Mouse CLDN18 A2.1, 1920; with Human CLDN18.2 [1], 2190. Further, the figures for the EC50 with Cynomolgus monkey CLDN18, with Mouse CLDN18 A2.1 and with Human CLDN18.2 [1] were 0.36 nM, 2.65 nM and 1.87 nM, respectively.

B4: v37410 (antibody, human IgG1, V domains shown)
VH: B2 VH with E46Q
VL: B1 VL
notes: human IgG1-based monoclonal antibody; also called H3-L4
In the case of B4, the Bmax with Cynomolgus monkey CLDN18 was 1500; with Mouse CLDN18 A2.1 it was 1690; in the experiment with Human CLDN18.2 [1], 1910. Further, the EC50 with Cynomolgus monkey CLDN18 was found to be 0.31 nM; with Mouse CLDN18 A2.1, 1.02 nM; with Human CLDN18.2 [1] it was 0.97 nM.

B5: v35777 (antibody, human IgG1, V domains shown)
VH: QSLEESGGRLVTPGTPLTLTCTVSGIDLSSNPMIWVRQAPGKGLQYIGIIDTDGSTYYASWAKGRFTGSKTSTTVDLKITSPTTEDTATYFCARRLHGSSNGYYDDLWGQGTLVTISS
VL: DGVMTQTPSSVSAAVGGTVTIKCQASQSIYSYLSWYQQKPGQRPKLLIYKASTLASGVPSRFKGSGSGTEFTLTISGVQCDDAATYYCQQGYTVTNVDKNTFGGGTEVVVK
notes: also called parental rabbit chimeric; rabbit-human chimeric IgG1/kappa anti-CLDN18.2
For B5, the Bmax turned out to be 1660 with Cynomolgus monkey CLDN18, 1640 with Mouse CLDN18 A2.1 and 2070 in the experiment with Human CLDN18.2 [1]. The EC50 came out at 0.48 nM in the experiment with Cynomolgus monkey CLDN18, 0.87 nM in the experiment with Mouse CLDN18 A2.1 and 1.29 nM with Human CLDN18.2 [1].

B6: v37638 (trispecific antibody, human IgG1, kappa, L234A L235A)
heavy 1: not shown
heavy 2: QVQLVESGGGLVQPGGSLRLSCSVSGIDLSSNPMIWVRQAPGKGLQYIGIIDTDGSTYYADWAKGRFTISKDSTTVYLQINSPRAEDTAVYYCARRLHGSSNGYYDDLWGQGTLVTVSSGGGGSGGGGSGGGGSGGGGSDGQMTQSPSSVSASVGDRVTITCQASQSIYSYLSWYQQKPGQRPKLLIYKASTLASGVPSRFSGSGSGTDFTLTISSVQPEDFATYYCQQGYTVTNVDKNTFGGGTKVEIKAAEPKSSDKTHTCPPCPAPEAAGGPSVFLFPPKPKDTLMISRTPEVTCVVVSVSHEDPEVKFNWYVDGVEVHNAKTKPREEQYNSTYRVVSVLTVLHQDWLNGKEYKCKVSNKALPAPIEKTISKAKGQPREPQVYVLPPSRDELTKNQVSLLCLVKGFYPSDIAVEWESNGQPENNYLTWPPVLDSDGSFFLYSKLTVDKSRWQQGNVFSCSVMHEALHNHYTQKSLSLSPG
light: DIQMTQSPSSLSASVGDRVTITCRASESVEYYVTSLMQWYQQKPGKAPKLLIYAASNVDSGVPSRFSGSGSGTDFTLTISSLQPEDIATYYCQQSRKVPFTFGGGTKVEIKRTVAAPSVFIFPPSDEQLKSGTASVVCLLNNFYPREAKVQWKVDNALQSGNSQESVTEQDSKDSTYSLSSTLTLSKADYEKHKVYACEVTHQGLSSPVTKSFNRGEC
notes: wild type huTN228 Fab; Het Fc, FcKO; also called Cldn18.2xCD3xCD28 trispecific
Take B6: in experiment [2], the “IL-2 maximum cytokine, T cells alone” value came out at 1750 pg/mL; the “IL-2 maximum cytokine, T cells with SNU 601 cells” value worked out at 3710 pg/mL; the “TNFa maximum cytokine, T cells alone” value came out at 115 pg/mL; the “TNFa maximum cytokine, T cells with SNU 601 cells” value is 670 pg/mL. Further, in experiment [3], the Kd came out at 22.2 nM, the koff amounted to 0.0021 s⁻¹ and the kon was determined as 95500 M⁻¹ s⁻¹. Further, in the experiment with Human CLDN18.2 [4], the Bmax worked out at 9140 MFI and a half-maximal response (EC50) required 47.5 nM. Also, in [5], the “IC50, T cell-dependent cytotoxicity on SNU 601” value worked out at 0.00017 nM and the “Maximum Killing (%), SNU 601” value stood at 88.2%. Further, in experiment [6], the “Fold-change from WT” value came out at 1 fold, the Kd came out at 22.2 nM, the koff amounted to 0.0021 s⁻¹ and the kon stood at 95500 M⁻¹ s⁻¹. In [7], the dissociation constant Kd is 74.6 nM, the koff amounted to 0.0123 s⁻¹ and the kon was 164000 M⁻¹ s⁻¹.

B7: v37640 (trispecific antibody, human IgG1, kappa, L234A L235A)
heavy 1: QVQLQESGPGLVKPSETLSLTCAVSGFSLTSYGVHWIRQPPGKGLEWLGVIWPGGGTNFNSALMSRLTISEDTSKNQVSLKLSSVTAADTAVYYCARDRAYGNYLYAMDYWGQGTLVTVSSASTKGPSVFPLAPSSKSTSGGTAALGCLVKDYFPEPVTVSWNSGALTSGVHTFPAVLQSSGLYSLSSVVTVPSSSLGTQTYICNVNHKPSNTKVDKKVEPKSCDKTHTCPPCPAPEAAGGPSVFLFPPKPKDTLMISRTPEVTCVVVSVSHEDPEVKFNWYVDGVEVHNAKTKPREEQYNSTYRVVSVLTVLHQDWLNGKEYKCKVSNKALPAPIEKTISKAKGQPREPQVYVYPPSRDELTKNQVSLTCLVKGFYPSDIAVEWESNGQPENNYKTTPPVLDSDGSFALVSKLTVDKSRWQQGNVFSCSVMHEALHNHYTQKSLSLSPGGGGGSGNFMLTQPHSVSESPGKTVTISCKRNTGNIGSNYVNWYQQHEGSSPTTIIYRNDKRPDGVSDRFSGSIDRSSKSASLTISNLKTEDEADYFCQSYSSGFIFGGGTKLTVLGGGGSGGGGSGGGGSGGGGSEVQLVESGGGLVQPGGSLRLSCAASGVTFNYYGMSWIRQAPGKGLEWVASITSSGGRIYYPDSVKGRFTISRENTQKTLYLQMNSLRAEDTAVYYCTLDGRDGWVAYWGQGTLVTVSS
heavy 2: B6 heavy 2
light: B6 light
notes: Het Fc, FcKO; also called Cldn18.2xCD28xCD3 trispecific
For the molecule B7, in experiment [3], the Kd came out at 27.3 nM, the koff stood at 0.00212 s⁻¹ and the kon was 77800 M⁻¹ s⁻¹. In the experiment with Human CLDN18.2 [4], this molecule gave a Bmax of 9770 MFI and a half-maximal effective concentration (EC50) of 26.4 nM. In [7], the Kd was 296 nM, the off-rate constant (koff) is 0.0155 s⁻¹ and the kon was determined as 52200 M⁻¹ s⁻¹.

B8: v37635 (trispecific antibody, human IgG1, lambda, L234A L235A)
heavy 1: EVQLVESGGGLVQPGGSLRLSCAASGVTFNYYGMSWIRQAPGKGLEWVASITSSGGRIYYPDSVKGRFTISRENTQKTLYLQMNSLRAEDTAVYYCTLDGRDGWVAYWGQGTLVTVSSASTKGPSVFPLAPSSKSTSGGTAALGCLVKDYFPEPVTVSWNSGALTSGVHTFPAVLQSSGLYSLSSVVTVPSSSLGTQTYICNVNHKPSNTKVDKKVEPKSCDKTHTCPPCPAPEAAGGPSVFLFPPKPKDTLMISRTPEVTCVVVSVSHEDPEVKFNWYVDGVEVHNAKTKPREEQYNSTYRVVSVLTVLHQDWLNGKEYKCKVSNKALPAPIEKTISKAKGQPREPQVYVYPPSRDELTKNQVSLTCLVKGFYPSDIAVEWESNGQPENNYKTTPPVLDSDGSFALVSKLTVDKSRWQQGNVFSCSVMHEALHNHYTQKSLSLSPGGGGGSGDIQMTQSPSSLSASVGDRVTITCRASESVEYYVTSLMQWYQQKPGKAPKLLIYAASNVDSGVPSRFSGSGSGTDFTLTISSLQPEDIATYYCQQSRKVPFTFGGGTKVEIKGGGGSGGGGSGGGGSGGGGSQVQLQESGPGLVKPSETLSLTCAVSGFSLTSYGVHWIRQPPGKGLEWLGVIWPGGGTNFNSALMSRLTISEDTSKNQVSLKLSSVTAADTAVYYCARDRAYGNYLYAMDYWGQGTLVTVSS
heavy 2: B6 heavy 2
light: NFMLTQPHSVSESPGKTVTISCKRNTGNIGSNYVNWYQQHEGSSPTTIIYRNDKRPDGVSDRFSGSIDRSSKSASLTISNLKTEDEADYFCQSYSSGFIFGGGTKLTVLGQPKAAPSVTLFPPSSEELQANKATLVCLISDFYPGAVTVAWKADSSPVKAGVETTTPSKQSNNKYAASSYLSLTPEQWKSHRSYSCQVTHEGSTVEKTVAPTECS
notes: Het Fc, FcKO; also called CD3xCD28xCldn18.2 trispecific
As to B8, in experiment [3], the Kd was 288 nM, the koff came out at 0.0107 s⁻¹ and the kon was determined as 40400 M⁻¹ s⁻¹. Moreover, in the experiment with Human CLDN18.2 [4], the Bmax was 6600 MFI and the EC50 stood at 30.1 nM. Besides, in experiment [7], the Kd came to 92.5 nM, the koff was 0.0143 s⁻¹ and the kon stood at 157000 M⁻¹ s⁻¹.

For orientation: EC50 means the concentration that produces a half-maximal response. A word on the Kd: it is the concentration at which binding is half-saturated. In general, koff refers to the rate constant with which the complex falls apart. As a reminder, the kon is the second-order rate constant of association.
